Results from US8883410B2, “Method for determining the stability of organic methyleneamines in the presence of semicarbazide-sensitive amine oxidase” (Sanofi, priority 2007, dated 2014).

Target: T1, recombinant human SSAO (Homo sapiens, UniProt Q16853)
T1 construct: expressed in transfected cells; cell lysate
T1 sequence (Q16853 1-763): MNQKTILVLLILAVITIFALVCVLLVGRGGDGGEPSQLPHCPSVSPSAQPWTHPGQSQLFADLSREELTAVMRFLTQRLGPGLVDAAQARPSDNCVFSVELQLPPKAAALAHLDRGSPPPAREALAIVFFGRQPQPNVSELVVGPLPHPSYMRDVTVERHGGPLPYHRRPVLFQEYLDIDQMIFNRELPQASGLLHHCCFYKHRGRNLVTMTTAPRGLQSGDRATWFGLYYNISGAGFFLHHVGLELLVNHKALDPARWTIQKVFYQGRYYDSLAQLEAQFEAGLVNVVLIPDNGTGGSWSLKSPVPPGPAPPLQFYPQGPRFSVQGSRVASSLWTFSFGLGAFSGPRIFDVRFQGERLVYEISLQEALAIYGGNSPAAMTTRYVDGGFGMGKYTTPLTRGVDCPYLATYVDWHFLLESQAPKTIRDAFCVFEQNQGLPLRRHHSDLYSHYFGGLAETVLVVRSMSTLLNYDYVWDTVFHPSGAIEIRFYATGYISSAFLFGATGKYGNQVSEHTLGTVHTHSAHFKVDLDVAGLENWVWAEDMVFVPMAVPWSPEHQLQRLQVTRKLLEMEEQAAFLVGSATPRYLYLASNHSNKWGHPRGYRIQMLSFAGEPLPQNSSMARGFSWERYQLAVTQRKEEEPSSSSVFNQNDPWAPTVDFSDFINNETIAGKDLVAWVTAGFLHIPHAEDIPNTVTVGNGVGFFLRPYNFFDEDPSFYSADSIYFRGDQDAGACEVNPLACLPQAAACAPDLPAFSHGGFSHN
Assay: Amplex Red assay of specific activity of recombinant human SSAO
Format: biochemical
Text: The Amplex Red assay (a commercially available assay), was used initially to measure the specific activity of the recombinant human SSAO. Amplex Red is a colorless and nonfluorescent derivative of dihydroresorufin. In the presence of amine oxidases and SSAO, the Amplex Red reacts with H2O2 to produce the highly fluorescent product, resorufin. Resorufin has an excitation maximum at 563 nm and emission maximum at 587 nm and the assay can be quantified by reading the microtitre plate at 587 nm. The specific activity of recombinant SSAO was determined to be 280 pmol/min/mg protein and this was determined to be equivalent to the specific activity of SSAO found in human lung tissue. For subsequent assays to profile compounds in the LC/MS/MS assay, recombinant human SSAO (rhSSAO) was used at this defined specific activity.

B1: recombinant SSAO: recombinant human SSAO, full-length untagged, in CHO Flp-In cell lysate (protein, UniProt Q16853 1-763, looked up)
chain: T1 sequence (Q16853 1-763)
modifications: full-length
notes: recombinant human SSAO, full-length untagged, in CHO Flp-In cell lysate
- specific activity of recombinant SSAO: 280 pmol/min/mg protein
